# Test results published in the supplement of paper PMC9170038.
# Tested on: MS2 coat protein
# Assay: apparent KD of MS2 coat protein; designed switch direction (-1 OFF switch, 1 ON switch): 1; higher = weaker reporter binding
# Outline: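 RNA switches sharing common flanks were transcribed by stalled E. coli RNA polymerase on Illumina chips. A doubling series of SNAP-549-labelled MS2 coat protein, from 0.7 or 1.5 nM to 3 µM, was applied in Tris-HCl pH 7.5 buffer with KCl, MgCl2, BSA, DTT, tRNA and Tween-20. Each step lasted 0.8–1.5 h at the bottom of the series and 10–20 min at the top. Normalised cluster fluorescence was curve-fitted, giving apparent KD as the per-design median over clusters.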
# [1] = input ligand: microRNA oligo, concentration not stated
# [2] = Eterna round: R95, input ligand: microRNA oligo, concentration not stated
# [3] = Eterna round: R95, input ligand: FMN 200 uM
# [4] = Eterna round: R95, input ligand: none
sequence,measurement,setting,value
"GCGCACGAUCACAGUAACAUGAGGAUCACCCAUGUGUUACCGGAGGAUAUGCAAGCCCAUGCAGCGCAGAAGGCCGGGAACGUA [Eternabot solution 24] (Eterna round: R96, puzzle: Same State NG 3)",apparent KD of MS2 coat protein,input ligand: FMN 200 uM,151 nM
same,apparent KD of MS2 coat protein,[1],131 nM
same,apparent KD of MS2 coat protein,input ligand: none,147 nM
"CCUUCGGGAGUAGGAUAUGUAGGAUAUGCCUACAUGAGGAUCACCCAUGUUCGCAUGGCAGAAGGACAGAAGGACACGUUCGCG [pwkr ssNG2 2FMN + 1F5.13] (Eterna round: R96, puzzle: Same State NG 2)",apparent KD of MS2 coat protein,input ligand: FMN 200 uM,95.4 nM
same,apparent KD of MS2 coat protein,[1],287 nM
same,apparent KD of MS2 coat protein,input ligand: none,652 nM
"UGACACACGGCAGGAUAUGCUUAGCAAAGCUAAGCAGAAGGGCCUCAUGUCGUGGAAACGUGACAUGAGGAUCACCCAUGUUGC [Omei SS(NG)1 Cv2] (Eterna round: R96, puzzle: Same State NG 1)",apparent KD of MS2 coat protein,input ligand: FMN 200 uM,306 nM
same,apparent KD of MS2 coat protein,[1],46.8 nM
same,apparent KD of MS2 coat protein,input ligand: none,57.9 nM
"GGCCGGAGUCAAGGAUAUGCUACCGUUUCGGUAGCAGAAGGUGAUCACAUGAGGAUCACCCAUGUUUACUGGGAGACCACGGCC [JL SSNG1 3.70] (Eterna round: R96, puzzle: Same State NG 1)",apparent KD of MS2 coat protein,input ligand: FMN 200 uM,105 nM
same,apparent KD of MS2 coat protein,[1],134 nM
same,apparent KD of MS2 coat protein,input ligand: none,166 nM
"AUAAAACAUGAGGAUCACCCAUGUCAACAAAGUCGAGGAUAUGGGUAAAUAAAAUAAGAACCAGAAGGCGAAUAAU [salish99_ss1_r3_028] (Eterna round: R96, puzzle: Same State 1)",apparent KD of MS2 coat protein,input ligand: FMN 200 uM,122 nM
same,apparent KD of MS2 coat protein,[1],713 nM
same,apparent KD of MS2 coat protein,input ligand: none,941 nM
"GCCGCAAGGGCAGGAUAUGGGUCCAGAGCGCAAAUGCGCUCUGGUACAUGAGGAUCACCCAUGUCCCAGAAGGGCCCAAGCGAC [Xeatvearbe] (Eterna round: R96, puzzle: Same State NG 2)",apparent KD of MS2 coat protein,input ligand: FMN 200 uM,14.6 nM
same,apparent KD of MS2 coat protein,[1],88.6 nM
same,apparent KD of MS2 coat protein,input ligand: none,130 nM
"UGUUGUUAAUUAGGAUAUGGUCACAUGAGGAUCACCCAUGUAAUGUCGAUGCUAUGUGGAUUUGAUCAGAAGGAAUGGUUAACA [SameState NG2 #98] (Eterna round: R96, puzzle: Same State NG 2)",apparent KD of MS2 coat protein,input ligand: FMN 200 uM,49.2 nM
same,apparent KD of MS2 coat protein,[1],62.3 nM
same,apparent KD of MS2 coat protein,input ligand: none,90.4 nM
AUAUAACAUGAGGAUCACCCAUGUCACUAAAGUCGAGGAUAUGGGCAGGUUAUAUCCGAACCAGAAGGCGAAUUAU [SS1 Teenbexe 6] (puzzle: Same State 1),apparent KD of MS2 coat protein,[2],163 nM
"UGUUGUUAAUUAGGAUAUGGGCACAUGAGGAUCACCCAUGUAUUUUCGAUGCUAUGUGGAGACGUCUAGAAGGAAUGGCUAACA [SameState NG2 #89] (Eterna round: R96, puzzle: Same State NG 2)",apparent KD of MS2 coat protein,input ligand: FMN 200 uM,205 nM
same,apparent KD of MS2 coat protein,[1],212 nM
same,apparent KD of MS2 coat protein,input ligand: none,219 nM
AGUCCAGCGAAAGCUGGACAAGAGCAUGUACAUGAGGAUCACCCAUGUUCAUGUACAAGCUUUUUGCUCGUCUUAAA [JL mod - D95 - 2] (puzzle: Sensor for hsa-mir-208a),apparent KD of MS2 coat protein,[3],384 nM
same,apparent KD of MS2 coat protein,[2],14.3 nM
same,apparent KD of MS2 coat protein,[4],439 nM
"UUUUUUAUCGUAGGAUAUAGGUUGAAUAAUAGACUAGAAGGACGUGACAUGAGGAUCACCCAUGUUUUUUAAGUGUCGAAGUGU [JR_SSNG1_Sub039] (Eterna round: R96, puzzle: Same State NG 1)",apparent KD of MS2 coat protein,[1],19.6 nM
AACAAUCUAUCUGAGGAUAUCAUGAAAUAAACAUGAGGAUCACCCAUGUGCAGGAAAACUGCAUAUGAGAAGGCAGAUAUAUUGA [salish99_ss2_r3_055] (puzzle: Same State 2),apparent KD of MS2 coat protein,[3],104 nM
same,apparent KD of MS2 coat protein,[2],1160 nM
same,apparent KD of MS2 coat protein,[4],4700 nM
AGGCAAGCUUUUUGCUUGUAUGCAGGAGAACAUGAGGAUCACCCAUGUCUUGGAGGUGUUGAAAAUAAGAGAAUGCA [JR_SHM208A_Sub006] (puzzle: Sensor for hsa-mir-208a),apparent KD of MS2 coat protein,[3],63.9 nM
same,apparent KD of MS2 coat protein,[2],72.8 nM
same,apparent KD of MS2 coat protein,[4],93.9 nM
AGUCCAGCCUGAGCUGGACAAAAGCAUGUACAUGAGGAUCACCCAUGUCAUGUACAAGCUUUUUGCUCGUAUUAAAA [Mat - hsa-mir-208a - Mod of JL - D9] (puzzle: Sensor for hsa-mir-208a),apparent KD of MS2 coat protein,[3],362 nM
same,apparent KD of MS2 coat protein,[2],15.4 nM
same,apparent KD of MS2 coat protein,[4],574 nM
"UAAGUAUGUUGAGGAUAUUAUGUUUGGUGAGAUGACAUGAGGAUCACCCAUGUGUUAUCAGUUCUUAAGAAGGCAACAUACUUA [JR_SSNG2_Sub092] (Eterna round: R96, puzzle: Same State NG 2)",apparent KD of MS2 coat protein,[1],20 nM
"GUUAGGAAUCUAGCAUACAUGAGGAUCACCCAUGUAAGUGGGAAGGAUAUGGUACAGAAACUGUACCAGAAGGUCUUAUUGUUU [Omei SS(NG) 3 AV7] (Eterna round: R96, puzzle: Same State NG 3)",apparent KD of MS2 coat protein,input ligand: FMN 200 uM,149 nM
same,apparent KD of MS2 coat protein,[1],366 nM
same,apparent KD of MS2 coat protein,input ligand: none,330 nM
"UACAUACGCGGAGGAUAUGGGCGAGGCGCAGAGGUCUGCACCAAAACAUGAGGAUCACCCAUGUCCCAGAAGGCCGCACAAACU [Onageenza] (Eterna round: R96, puzzle: Same State NG 2)",apparent KD of MS2 coat protein,input ligand: FMN 200 uM,19.9 nM
same,apparent KD of MS2 coat protein,[1],48.8 nM
same,apparent KD of MS2 coat protein,input ligand: none,71.9 nM
"AAUUAAGAUUAAGGAUAUCACGUCGAAUAGACGUGAGAAGGUGAUCAUAACAUGAGGAUCACCCAUGUAUUACAUGAAUUAAUU [SSNG1/3-B1] (Eterna round: R96, puzzle: Same State NG 1)",apparent KD of MS2 coat protein,input ligand: FMN 200 uM,873 nM
same,apparent KD of MS2 coat protein,[1],218 nM
same,apparent KD of MS2 coat protein,input ligand: none,498 nM
"CGCAUCCUUGUUACAUGAGGAUCACCCAUGUUUUCGAGUGGAGAGGAUAUCGUAACAGUAUUUUUCGAGAAGGCUCUAUAGUUU [JR_SSNG3_Sub080] (Eterna round: R96, puzzle: Same State NG 3)",apparent KD of MS2 coat protein,input ligand: FMN 200 uM,41.7 nM
same,apparent KD of MS2 coat protein,[1],37.6 nM
same,apparent KD of MS2 coat protein,input ligand: none,56.9 nM
"UUGCUCGGGUGAGGAUAUGCCGCCGUUUCGGCUGCAGAAGGUGCUACGUUACAUGAGGAUCACCCAUGUCUCUGUUGUUUCGUC [salish99_SSNG1_r04_968] (Eterna round: R96, puzzle: Same State NG 1)",apparent KD of MS2 coat protein,input ligand: FMN 200 uM,65.1 nM
same,apparent KD of MS2 coat protein,[1],28.1 nM
same,apparent KD of MS2 coat protein,input ligand: none,52.3 nM
"UAAGUCAUGUAAGGAUAUGCAGCCGAAACGGCUGCAGAAGGUACUAUAAUUACAUGAGGAUCACCCAUGUUAUAAAAUUAAAAU [Mat - Same State NG 1 - JL mod - D79] (Eterna round: R96, puzzle: Same State NG 1)",apparent KD of MS2 coat protein,input ligand: FMN 200 uM,20.8 nM
same,apparent KD of MS2 coat protein,[1],31.1 nM
same,apparent KD of MS2 coat protein,input ligand: none,57.3 nM
"AAAAUCGCGAUAGGAUAUGGGAAAGGAAGUGUACCAGAAGGAUCAGCGCCGACUGGACAUGAGGAUCACCCAUGUCGAGUCUUA [PowerStrip SSNG 1.2] (Eterna round: R96, puzzle: Same State NG 1)",apparent KD of MS2 coat protein,input ligand: FMN 200 uM,42.2 nM
same,apparent KD of MS2 coat protein,[1],26.6 nM
same,apparent KD of MS2 coat protein,input ligand: none,80.5 nM
"AAAGGAUGAUGUUACAUGAGGAUCACCCAUGUAGUGAUAACUAAGGAUAUGUGUUAAACAAGUUAAUAGAAGGUAGGAUCAUUA [AK SSNG3-V2-7] (Eterna round: R96, puzzle: Same State NG 3)",apparent KD of MS2 coat protein,input ligand: FMN 200 uM,73.9 nM
same,apparent KD of MS2 coat protein,[1],52 nM
same,apparent KD of MS2 coat protein,input ligand: none,69.4 nM
"AUUGCUUACGCAGGAUAUGAUGCGAAAAUUGCGUCAGAAGGGUGAAAAGAAUCGUUGCAAGAAGACAUGAGGAUCACCCAUGUC [SameState NG1 #94] (Eterna round: R96, puzzle: Same State NG 1)",apparent KD of MS2 coat protein,input ligand: FMN 200 uM,29.9 nM
same,apparent KD of MS2 coat protein,[1],28.2 nM
same,apparent KD of MS2 coat protein,input ligand: none,59.8 nM
"AGCUAUCGAAAACGAUAGCAUAAGCUUGGACAUGAGGAUCACCCAUGUCAUGUACAAGCUUUUUGCUCGUCUUAAAA [JL zipper 29] (Eterna round: R96, puzzle: Sensor for hsa-mir-208a)",apparent KD of MS2 coat protein,input ligand: FMN 200 uM,32.3 nM
same,apparent KD of MS2 coat protein,[1],11.9 nM
same,apparent KD of MS2 coat protein,input ligand: none,34.5 nM
AGUCCAGCCUGAGCUGGACAGAAGCAUGUACAUGAGGAUCACCCAUGUUCAUGUACAAGCUUUUUGCUCGUCUUAAA [Zipper 52 - 3] (puzzle: Sensor for hsa-mir-208a),apparent KD of MS2 coat protein,[3],480 nM
same,apparent KD of MS2 coat protein,[2],14.2 nM
same,apparent KD of MS2 coat protein,[4],436 nM
"CGGUGUGAGAAAGGAUAUGUUCGCUAGUCGCGAGCAGAAGGUUCUGCGCGCUGCUAUACGAACAUGAGGAUCACCCAUGUAAAA [Laqu] (Eterna round: R96, puzzle: Same State NG 1)",apparent KD of MS2 coat protein,input ligand: FMN 200 uM,130 nM
same,apparent KD of MS2 coat protein,[1],11.8 nM
same,apparent KD of MS2 coat protein,input ligand: none,69.2 nM
"GGCGUAUAAACAUGAGGAUCACCCAUGUAGCGGAGACGCAAUGAGGAUAUCGAUGGGUUUCCCGUCGAGAAGGCAUGGGUCGCC [JL SSNG3 3.93] (Eterna round: R96, puzzle: Same State NG 3)",apparent KD of MS2 coat protein,input ligand: FMN 200 uM,17 nM
same,apparent KD of MS2 coat protein,[1],79.9 nM
same,apparent KD of MS2 coat protein,input ligand: none,105 nM
"AAUCGUUUGAUAGGAUAUCGCUAUACAUGAGGAUCACCCAUGUUUACCACGCUGGUUUUUCAUACCGAGAAGGAUUCUGAUGAG [salish99_SSNG02_r04_001] (Eterna round: R96, puzzle: Same State NG 2)",apparent KD of MS2 coat protein,input ligand: FMN 200 uM,72.1 nM
same,apparent KD of MS2 coat protein,[1],45.7 nM
same,apparent KD of MS2 coat protein,input ligand: none,53.4 nM
"GCCGGCUGGUGAGGAUAUGGCACCUUAUUGGUGCCAGAAGGCAUGUCAAUUGACAUGAGGAUCACCCAUGUAUUAUCGUUGGCG [salish99_SSNG1_r04_607] (Eterna round: R96, puzzle: Same State NG 1)",apparent KD of MS2 coat protein,input ligand: FMN 200 uM,725 nM
same,apparent KD of MS2 coat protein,[1],325 nM
same,apparent KD of MS2 coat protein,input ligand: none,370 nM
"CCUUAGUACAAUUUAGAUCUACAUGAGGAUCACCCAUGUACUGAGGAUAUCAGCUCGUUUAGAGCUGAGAAGGCAGAAGUACUU [SSNG3/7-A3] (Eterna round: R96, puzzle: Same State NG 3)",apparent KD of MS2 coat protein,input ligand: FMN 200 uM,75.1 nM
same,apparent KD of MS2 coat protein,[1],67.6 nM
same,apparent KD of MS2 coat protein,input ligand: none,140 nM
